# Data reported in patent US20190048074A1.
# Tests used:
# [1] = target: full-length human APLNR (human) (UniProt P35414); experiment: FACS, 10 µg/mL antibody, HEK293/CRE-luc/hAPLNR cells
# [2] = target: full length cynomolgus APLNR (cynomolgus monkey (Macaca fascicularis)); experiment: FACS, 10 µg/mL antibody, HEK293/CRE-luc/MfAPLNR cells
# [3] = target: full-length human APLNR (human) (UniProt P35414); experiment: FACS, secondary alone, HEK293/CRE-luc/hAPLNR cells
# [4] = target: full-length human APLNR (human) (UniProt P35414); experiment: FACS, 4 µg/mL secondary alone, HEK293/CRE-luc/hAPLNR cells
# [5] = target: full length cynomolgus APLNR (cynomolgus monkey (Macaca fascicularis)); experiment: FACS, secondary alone, HEK293/CRE-luc/MfAPLNR cells
# [6] = target: full length cynomolgus APLNR (cynomolgus monkey (Macaca fascicularis)); experiment: FACS, 4 µg/mL secondary alone, HEK293/CRE-luc/MfAPLNR cells
# Chain of full length cynomolgus APLNR (cynomolgus monkey (Macaca fascicularis)) (O97666 whole entry): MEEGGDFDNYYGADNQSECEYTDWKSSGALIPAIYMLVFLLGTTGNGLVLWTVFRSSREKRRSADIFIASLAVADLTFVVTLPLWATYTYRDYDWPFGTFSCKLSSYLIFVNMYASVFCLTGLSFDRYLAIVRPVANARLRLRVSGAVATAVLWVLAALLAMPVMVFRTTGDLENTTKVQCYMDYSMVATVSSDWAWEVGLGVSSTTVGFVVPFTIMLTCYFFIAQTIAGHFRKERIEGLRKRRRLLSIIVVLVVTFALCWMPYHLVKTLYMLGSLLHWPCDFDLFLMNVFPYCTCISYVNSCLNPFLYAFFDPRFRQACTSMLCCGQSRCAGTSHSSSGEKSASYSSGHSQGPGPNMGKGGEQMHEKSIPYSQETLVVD
# Chain of full-length human APLNR (human) (P35414 whole entry): as the sequence (O97666 whole entry) above, with S101F, F167L, D194E, V290I counted along it
Substance,Binding Ratio of Geom. Mean to Unstained Cells [1],Binding Ratio of Geom. Mean to Unstained Cells [2],Binding Ratio of Geom. Mean to Unstained Cells [3],Binding Ratio of Geom. Mean to Unstained Cells [4],Binding Ratio of Geom. Mean to Unstained Cells [5],Binding Ratio of Geom. Mean to Unstained Cells [6]
Isotype Control (Tables 4 and 5) (antibody),2 fold,2 fold,,,,
anti-human IgG antibody conjugated with Alexa 488,,,2 fold,2 fold,2 fold,2 fold
anti-mouse IgG antibody conjugated with Alexa 647,,,,4 fold,,3 fold
mouse IgG (mIgG) control antibody,7 fold,6 fold,,,,
